Measurements taken from patent publication US20210246166A1 (Bayer, published 2021).
Bridge positions count the residues as written; N and C are the ends. Square brackets hold non-standard residues; d marks the D form. Ends that are not written are not given here. Pro(3S,4R-methano) = O=C(O)[C@H]1NC[C@@H]2C[C@@H]21; Pro(cis-4-CF3) = O=C(O)[C@@H]1C[C@H](C(F)(F)F)CN1; Oic = O=C(O)[C@@H]1C[C@@H]2CCCC[C@@H]2N1; PEG8 = NCCOCCOCCOCCOCCOCCOCCOCCOCCC(=O)O; Pro‑D2 = L-proline (3,4-2H), deuterated; PEG7 = NCCOCCOCCOCCOCCOCCOCCOCCC(=O)O; PEG6 = NCCOCCOCCOCCOCCOCCOCCC(=O)O; tBuAla = CC(C)(C)C[C@H](N)C(=O)O; PEG5 = NCCOCCOCCOCCOCCOCCC(=O)O; Pen = CC(C)(S)[C@H](N)C(=O)O; Tranexamic = tranexamic acid; NMeA = CN[C@@H](C)C(=O)O; Sar = CNCC(=O)O

Columns and labels:
[1] = target: recombinant rat MASP2 active protease (amino acids 296-685, C-terminal His Tag) (rat, UniProt Q9JJS8 296-685); assay: cell-based or functional assay
Sequence of recombinant rat MASP2 active protease (amino acids 296-685, C-terminal His Tag) (Q9JJS8 other isoform, or with tags, fused parts or gaps limits assumed): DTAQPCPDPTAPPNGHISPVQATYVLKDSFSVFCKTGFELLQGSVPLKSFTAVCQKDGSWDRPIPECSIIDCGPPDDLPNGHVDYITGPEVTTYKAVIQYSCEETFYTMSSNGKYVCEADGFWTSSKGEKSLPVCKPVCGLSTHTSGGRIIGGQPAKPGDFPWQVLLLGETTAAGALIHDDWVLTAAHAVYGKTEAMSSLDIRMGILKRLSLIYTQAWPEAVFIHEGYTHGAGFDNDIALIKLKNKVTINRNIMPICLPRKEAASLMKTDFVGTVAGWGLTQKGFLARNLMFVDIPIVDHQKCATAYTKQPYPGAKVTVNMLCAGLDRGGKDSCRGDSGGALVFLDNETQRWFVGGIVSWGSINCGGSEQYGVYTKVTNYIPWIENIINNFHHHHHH

[2] = target: T1, recombinant rat MASP1 active protease (amino acids 302-704, C-terminal His Tag) (rat, UniProt Q8CHN8 302-704); assay: cell-based or functional assay
T1 sequence: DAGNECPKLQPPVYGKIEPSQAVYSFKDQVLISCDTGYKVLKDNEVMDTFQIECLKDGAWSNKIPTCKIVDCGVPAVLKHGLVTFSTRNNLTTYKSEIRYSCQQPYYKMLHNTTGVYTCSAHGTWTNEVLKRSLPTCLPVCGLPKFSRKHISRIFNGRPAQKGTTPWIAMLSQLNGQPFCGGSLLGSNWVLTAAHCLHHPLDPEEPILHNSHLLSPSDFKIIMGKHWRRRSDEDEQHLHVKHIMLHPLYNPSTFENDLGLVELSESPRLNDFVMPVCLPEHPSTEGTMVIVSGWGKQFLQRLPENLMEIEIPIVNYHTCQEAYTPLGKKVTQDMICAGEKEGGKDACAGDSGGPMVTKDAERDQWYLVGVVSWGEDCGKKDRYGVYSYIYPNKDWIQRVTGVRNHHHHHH

## AICSRS[tBuAla]PPI[Pen]IP[Tranexamic]-NH2 (disulfide 3-11) [Example 171: AIC+SRS-((tBu)A)-PPI-(Pen)+IP-(Tranexamic)-NH2]
[1]
  rat MASP2 IC50: 21 nM
[2]
  rat MASP1 IC50: 42 nM

B1: Example 158: AIC+SRS-((tBu)A)-P-((4-CF3)P)-IC+IPD-NH2 (peptide)
peptide: AICSRS[tBuAla]P[Pro(cis-4-CF3)]ICIPD-NH2
modifications: disulfide 3-11; N-terminus assumed
SMILES: CC[C@H](C)[C@H](NC(=O)[C@H](C)N)C(=O)N[C@H]1CSSC[C@@H](C(=O)N[C@H](C(=O)N2CCC[C@H]2C(=O)N[C@@H](CC(=O)O)C(N)=O)[C@@H](C)CC)NC(=O)[C@H]([C@@H](C)CC)NC(=O)[C@@H]2C[C@H](C(F)(F)F)CN2C(=O)[C@@H]2CCCN2C(=O)[C@H](CC(C)(C)C)NC(=O)[C@H](CO)NC(=O)[C@H](CCCNC(=N)N)NC(=O)[C@H](CO)NC1=O
[1]
  rat MASP2 IC50: 420 nM
[2]
  rat MASP1 IC50: 247 nM

B2: Example 170: AIC+SRSLPPI-(Pen)+IPD-NH2 (peptide)
peptide: AICSRSLPPI[Pen]IPD-NH2
modifications: disulfide 3-11; N-terminus assumed
SMILES: CC[C@H](C)[C@H](NC(=O)[C@H](C)N)C(=O)N[C@H]1CSSC(C)(C)[C@@H](C(=O)N[C@H](C(=O)N2CCC[C@H]2C(=O)N[C@@H](CC(=O)O)C(N)=O)[C@@H](C)CC)NC(=O)[C@H]([C@@H](C)CC)NC(=O)[C@@H]2CCCN2C(=O)[C@@H]2CCCN2C(=O)[C@H](CC(C)C)NC(=O)[C@H](CO)NC(=O)[C@H](CCCNC(=N)N)NC(=O)[C@H](CO)NC1=O
[1]
  rat MASP2 IC50: 9.82 nM
[2]
  rat MASP1 IC50: 54 nM

B3: Example 141: ((N-Me)G)-IC+SRSLP-(Oic)-I-(Pen)+IPD-(PEG8(28 atoms))-NH2 (peptide)
peptide: [Sar]ICSRSLP[Oic]I[Pen]IPD[PEG8]-NH2
modifications: disulfide 3-11; N-terminus assumed
SMILES: CC[C@H](C)[C@H](NC(=O)CNC)C(=O)N[C@H]1CSSC(C)(C)[C@@H](C(=O)N[C@H](C(=O)N2CCC[C@H]2C(=O)N[C@@H](CC(=O)O)C(=O)NCCOCCOCCOCCOCCOCCOCCOCCOCCC(N)=O)[C@@H](C)CC)NC(=O)[C@H]([C@@H](C)CC)NC(=O)[C@@H]2C[C@@H]3CCCC[C@@H]3N2C(=O)[C@@H]2CCCN2C(=O)[C@H](CC(C)C)NC(=O)[C@H](CO)NC(=O)[C@H](CCCNC(=N)N)NC(=O)[C@H](CO)NC1=O
[1]
  rat MASP2 IC50: 95 nM
[2]
  rat MASP1 IC50: 140 nM

B4: Example 109: ((N-Me)G)-IC+SRSLP-(Oic)-I-(Pen)+IP-NH2 (peptide)
peptide: [Sar]ICSRSLP[Oic]I[Pen]IP-NH2
modifications: disulfide 3-11; N-terminus assumed
SMILES: CC[C@H](C)[C@H](NC(=O)CNC)C(=O)N[C@H]1CSSC(C)(C)[C@@H](C(=O)N[C@H](C(=O)N2CCC[C@H]2C(N)=O)[C@@H](C)CC)NC(=O)[C@H]([C@@H](C)CC)NC(=O)[C@@H]2C[C@@H]3CCCC[C@@H]3N2C(=O)[C@@H]2CCCN2C(=O)[C@H](CC(C)C)NC(=O)[C@H](CO)NC(=O)[C@H](CCCNC(=N)N)NC(=O)[C@H](CO)NC1=O
[1]
  rat MASP2 IC50: 42 nM
[2]
  rat MASP1 IC50: 76 nM

B5: Example 150: ((N-Me)G)-IC+SRSLP-(Oic)-I-(Pen)+IP-(PEG7(25 atoms))-NH2 (peptide)
peptide: [Sar]ICSRSLP[Oic]I[Pen]IP[PEG7]-NH2
modifications: disulfide 3-11; N-terminus assumed
SMILES: CC[C@H](C)[C@H](NC(=O)CNC)C(=O)N[C@H]1CSSC(C)(C)[C@@H](C(=O)N[C@H](C(=O)N2CCC[C@H]2C(=O)NCCOCCOCCOCCOCCOCCOCCOCCC(N)=O)[C@@H](C)CC)NC(=O)[C@H]([C@@H](C)CC)NC(=O)[C@@H]2C[C@@H]3CCCC[C@@H]3N2C(=O)[C@@H]2CCCN2C(=O)[C@H](CC(C)C)NC(=O)[C@H](CO)NC(=O)[C@H](CCCNC(=N)N)NC(=O)[C@H](CO)NC1=O
[1]
  rat MASP2 IC50: 53 nM
[2]
  rat MASP1 IC50: 120 nM

## AICSRSL[Pro‑D2][Oic]I[Pen]IPD-OH (disulfide 3-11) [Example 142: AIC+SRSL-(Pro-D2)-(Oic)-I-(Pen)+IPD-OH]
[1]
  rat MASP2 IC50: 17.1 nM
[2]
  rat MASP1 IC50: 10.9 nM

B6: Example 168: ((N-Me)G)-IC+SRSLP-(Oic)-I-(Pen)+IP-(PEG8(28 atoms))-NH2 (peptide)
peptide: [Sar]ICSRSLP[Oic]I[Pen]IP[PEG8]-NH2
modifications: disulfide 3-11; N-terminus assumed
SMILES: CC[C@H](C)[C@H](NC(=O)CNC)C(=O)N[C@H]1CSSC(C)(C)[C@@H](C(=O)N[C@H](C(=O)N2CCC[C@H]2C(=O)NCCOCCOCCOCCOCCOCCOCCOCCOCCC(N)=O)[C@@H](C)CC)NC(=O)[C@H]([C@@H](C)CC)NC(=O)[C@@H]2C[C@@H]3CCCC[C@@H]3N2C(=O)[C@@H]2CCCN2C(=O)[C@H](CC(C)C)NC(=O)[C@H](CO)NC(=O)[C@H](CCCNC(=N)N)NC(=O)[C@H](CO)NC1=O
[1]
  rat MASP2 IC50: 53 nM
[2]
  rat MASP1 IC50: 140 nM

B7: Example 156: ((N-Me)G)-IC+SRS-((tBu)A)-PPI-(Pen)+IP-NH2 (peptide)
peptide: [Sar]ICSRS[tBuAla]PPI[Pen]IP-NH2
modifications: disulfide 3-11; N-terminus assumed
SMILES: CC[C@H](C)[C@H](NC(=O)CNC)C(=O)N[C@H]1CSSC(C)(C)[C@@H](C(=O)N[C@H](C(=O)N2CCC[C@H]2C(N)=O)[C@@H](C)CC)NC(=O)[C@H]([C@@H](C)CC)NC(=O)[C@@H]2CCCN2C(=O)[C@@H]2CCCN2C(=O)[C@H](CC(C)(C)C)NC(=O)[C@H](CO)NC(=O)[C@H](CCCNC(=N)N)NC(=O)[C@H](CO)NC1=O
[1]
  rat MASP2 IC50: 16 nM
[2]
  rat MASP1 IC50: 21 nM

B8: Example 126: ((N-Me)A)-IC+SRS-((tBu)A)-PPI-(Pen)+IP-NH2 (peptide)
peptide: [NMeA]ICSRS[tBuAla]PPI[Pen]IP-NH2
modifications: disulfide 3-11; N-terminus assumed
SMILES: CC[C@H](C)[C@H](NC(=O)[C@H](C)NC)C(=O)N[C@H]1CSSC(C)(C)[C@@H](C(=O)N[C@H](C(=O)N2CCC[C@H]2C(N)=O)[C@@H](C)CC)NC(=O)[C@H]([C@@H](C)CC)NC(=O)[C@@H]2CCCN2C(=O)[C@@H]2CCCN2C(=O)[C@H](CC(C)(C)C)NC(=O)[C@H](CO)NC(=O)[C@H](CCCNC(=N)N)NC(=O)[C@H](CO)NC1=O
[1]
  rat MASP2 IC50: 10 nM
[2]
  rat MASP1 IC50: 11 nM

B9: Example 140: ((N-Me)G)-IC+SRSLP-(Oic)-I-(Pen)+IP-(PEG5(22 atoms))-NH2 (peptide)
peptide: [Sar]ICSRSLP[Oic]I[Pen]IP[PEG6]-NH2
modifications: disulfide 3-11; N-terminus assumed
SMILES: CC[C@H](C)[C@H](NC(=O)CNC)C(=O)N[C@H]1CSSC(C)(C)[C@@H](C(=O)N[C@H](C(=O)N2CCC[C@H]2C(=O)NCCOCCOCCOCCOCCOCCOCCC(N)=O)[C@@H](C)CC)NC(=O)[C@H]([C@@H](C)CC)NC(=O)[C@@H]2C[C@@H]3CCCC[C@@H]3N2C(=O)[C@@H]2CCCN2C(=O)[C@H](CC(C)C)NC(=O)[C@H](CO)NC(=O)[C@H](CCCNC(=N)N)NC(=O)[C@H](CO)NC1=O
[1]
  rat MASP2 IC50: 50 nM
[2]
  rat MASP1 IC50: 100 nM

B10: Example 146: ((N-Me)G)-IC+SRSLP-(Oic)-I-(Pen)+IPD-(PEG5(22 atoms))-NH2 (peptide)
peptide: [Sar]ICSRSLP[Oic]I[Pen]IPD[PEG6]-NH2
modifications: disulfide 3-11; N-terminus assumed
SMILES: CC[C@H](C)[C@H](NC(=O)CNC)C(=O)N[C@H]1CSSC(C)(C)[C@@H](C(=O)N[C@H](C(=O)N2CCC[C@H]2C(=O)N[C@@H](CC(=O)O)C(=O)NCCOCCOCCOCCOCCOCCOCCC(N)=O)[C@@H](C)CC)NC(=O)[C@H]([C@@H](C)CC)NC(=O)[C@@H]2C[C@@H]3CCCC[C@@H]3N2C(=O)[C@@H]2CCCN2C(=O)[C@H](CC(C)C)NC(=O)[C@H](CO)NC(=O)[C@H](CCCNC(=N)N)NC(=O)[C@H](CO)NC1=O
[1]
  rat MASP2 IC50: 68 nM
[2]
  rat MASP1 IC50: 110 nM

B11: Example 90: ((N-Me)G)-IC+SRSL-((1S,2S,5R)-3-azabicyclo[3.1.0]hexane-2-carboxylic acid)-PI-(Pen)+IPE-NH2 (peptide)
peptide: [Sar]ICSRSL[Pro(3S,4R-methano)]PI[Pen]IPE-NH2
modifications: disulfide 3-11; N-terminus assumed
SMILES: CC[C@H](C)[C@H](NC(=O)CNC)C(=O)N[C@H]1CSSC(C)(C)[C@@H](C(=O)N[C@H](C(=O)N2CCC[C@H]2C(=O)N[C@@H](CCC(=O)O)C(N)=O)[C@@H](C)CC)NC(=O)[C@H]([C@@H](C)CC)NC(=O)[C@@H]2CCCN2C(=O)[C@@H]2[C@H]3C[C@H]3CN2C(=O)[C@H](CC(C)C)NC(=O)[C@H](CO)NC(=O)[C@H](CCCNC(=N)N)NC(=O)[C@H](CO)NC1=O
[1]
  rat MASP2 IC50: 55 nM
[2]
  rat MASP1 IC50: 67 nM

B12: Example 153: AIC+SRSLP-(Oic)-IC+IPD-OH (peptide)
peptide: AICSRSLP[Oic]ICIPD-OH
modifications: disulfide 3-11; N-terminus assumed
SMILES: CC[C@H](C)[C@H](NC(=O)[C@H](C)N)C(=O)N[C@H]1CSSC[C@@H](C(=O)N[C@H](C(=O)N2CCC[C@H]2C(=O)N[C@@H](CC(=O)O)C(=O)O)[C@@H](C)CC)NC(=O)[C@H]([C@@H](C)CC)NC(=O)[C@@H]2C[C@@H]3CCCC[C@@H]3N2C(=O)[C@@H]2CCCN2C(=O)[C@H](CC(C)C)NC(=O)[C@H](CO)NC(=O)[C@H](CCCNC(=N)N)NC(=O)[C@H](CO)NC1=O
[1]
  rat MASP2 IC50: 50.3 nM
[2]
  rat MASP1 IC50: 40 nM

## [Sar]ICSRSLP[Oic]I[Pen]IP-{PEG5-NH2} (disulfide 3-11) [Example 97: ((N-Me)G)-IC+SRSLP-(Oic)-I-(Pen)+IP-(PEG4(19 atoms))-NH2]
[1]
  rat MASP2 IC50: 51 nM
[2]
  rat MASP1 IC50: 120 nM
